Legend:
[1] = target: AaFtsH-Δ20 mutant (Aquifex aeolicus) (UniProt O67077); experiment: SEC-MALS; Superose 6 Increase 10/300 GL, 20 mM Tris-HCl pH 8.0, 150 mM NaCl, 0.01% LMNG, room temperature; protein conjugate analysis; step: subunits to hexamer (second peak)
purified protein = substrate: Nc1ncnc2c1ncn2[C@@H]1O[C@H](COP(=O)(O)OP(=O)(O)OP(=O)(O)O)[C@@H](O)[C@H]1O; experiment: purified protein; conditions: 50 mM Tris-HCl pH 8.0, 150 mM NaCl, 10 mM MgCl2, 60 °C, 0.25 μM AaFtsH (monomer concentration)
[2] = target: the molecule itself; experiment: SEC-MALS; Superose 6 Increase 10/300 GL, 20 mM Tris-HCl pH 8.0, 150 mM NaCl, 0.01% LMNG, room temperature; protein conjugate analysis; step: subunits to hexamer (second peak)
[3] = target: the molecule itself; experiment: SEC-MALS; Superose 6 Increase 10/300 GL, 20 mM Tris-HCl pH 8.0, 150 mM NaCl, 0.01% LMNG, room temperature; protein conjugate analysis; step: two hexamers to a dodecamer in one LMNG micelle (first peak)

Molecule | stoichiometry N [1] | Km (purified protein) | kcat (purified protein) [s⁻¹] | stoichiometry N [2] | stoichiometry N [3]
AaFtsH-Δ20 mutant (from UniProt O67077 1-634) (enzyme) | 6 | – | – | – | –
AaFtsH hexamer (Aquifex aeolicus VF5) (protein) MNALKNFFIWAIIIGAAIVAFNLFEGKREFTTKVSLNEVVKLVEEGKVSYAEVRGNTAIIQTKDGQKLEVTLPPNTNLVDKMVEKGVRVEVANPEPPGGWLVNVFLSWLPILFFIGIWIFLLRQMSGGGNVNRAFNFGKSRAKVYIEEKPKVTFKDVAGIEEVKEEVKEIIEYLKDPVKFQKLGGRPPKGVLLYGEPGVGKTLLAKAIAGEAHVPFISVSGSDFVEMFVGVGAARVRDLFETAKKHAPCIIFIDEIDAVGRARGAIPVGGGHDEREQTLNQLLVEMDGFDTSDGIIVIAATNRPDILDPALLRPGRFDRQIFIPKPDVRGRYEILKVHARNKKLAKDVDLEFVARATPGFTGADLENLLNEAALLAARKGKEEITMEEIEEALDRITMGLERKGMTISPKEKEKIAIHEAGHALMGLVSDDDDKVHKISIIPRGMALGVTQQLPIEDKHIYDKKDLYNKILVLLGGRAAEEVFFGKDGITTGAENDLQRATDLAYRMVSMWGMSDKVGPIAIRRVANPFLGGMTTAVDTSPDLLREIDEEVKRIITEQYEKAKAIVEEYKEPLKAVVKKLLEKETITCEEFVEVFKLYGIELKDKCKKEELFDKDRKSEENKELKSEEVKEEVV | – | 600 (95% CI: 480–754) μM | 1.05 | – | –
AaFtsH dodecamer (Aquifex aeolicus VF5) (protein) MNALKNFFIWAIIIGAAIVAFNLFEGKREFTTKVSLNEVVKLVEEGKVSYAEVRGNTAIIQTKDGQKLEVTLPPNTNLVDKMVEKGVRVEVANPEPPGGWLVNVFLSWLPILFFIGIWIFLLRQMSGGGNVNRAFNFGKSRAKVYIEEKPKVTFKDVAGIEEVKEEVKEIIEYLKDPVKFQKLGGRPPKGVLLYGEPGVGKTLLAKAIAGEAHVPFISVSGSDFVEMFVGVGAARVRDLFETAKKHAPCIIFIDEIDAVGRARGAIPVGGGHDEREQTLNQLLVEMDGFDTSDGIIVIAATNRPDILDPALLRPGRFDRQIFIPKPDVRGRYEILKVHARNKKLAKDVDLEFVARATPGFTGADLENLLNEAALLAARKGKEEITMEEIEEALDRITMGLERKGMTISPKEKEKIAIHEAGHALMGLVSDDDDKVHKISIIPRGMALGVTQQLPIEDKHIYDKKDLYNKILVLLGGRAAEEVFFGKDGITTGAENDLQRATDLAYRMVSMWGMSDKVGPIAIRRVANPFLGGMTTAVDTSPDLLREIDEEVKRIITEQYEKAKAIVEEYKEPLKAVVKKLLEKETITCEEFVEVFKLYGIELKDKCKKEELFDKDRKSEENKELKSEEVKEEVV | – | 518 (95% CI: 432–625) μM | 1.02 | – | –
full-length Aquifex aeolicus FtsH (enzyme, UniProt O67077 1-634, looked up, the cited crystal structure PDB 4WW0 holds only the cytosolic domain, residues 141-608; The molecule is the protomer; In LMNG it is found as a hexamer (second SEC peak) and as a dodecamer of two hexamers in one LMNG micelle (first SEC peak); Before SEC it was incubated overnight at 60 °C with 20 mM ATP, 10 mM MgCl2 and 25 uM ZnCl2; also called AaFtsH; AaFtsH wildtype; source: E. coli, …) MNALKNFFIWAIIIGAAIVAFNLFEGKREFTTKVSLNEVVKLVEEGKVSYAEVRGNTAIIQTKDGQKLEVTLPPNTNLVDKMVEKGVRVEVANPEPPGGWLVNVFLSWLPILFFIGIWIFLLRQMSGGGNVNRAFNFGKSRAKVYIEEKPKVTFKDVAGIEEVKEEVKEIIEYLKDPVKFQKLGGRPPKGVLLYGEPGVGKTLLAKAIAGEAHVPFISVSGSDFVEMFVGVGAARVRDLFETAKKHAPCIIFIDEIDAVGRARGAIPVGGGHDEREQTLNQLLVEMDGFDTSDGIIVIAATNRPDILDPALLRPGRFDRQIFIPKPDVRGRYEILKVHARNKKLAKDVDLEFVARATPGFTGADLENLLNEAALLAARKGKEEITMEEIEEALDRITMGLERKGMTISPKEKEKIAIHEAGHALMGLVSDDDDKVHKISIIPRGMALGVTQQLPIEDKHIYDKKDLYNKILVLLGGRAAEEVFFGKDGITTGAENDLQRATDLAYRMVSMWGMSDKVGPIAIRRVANPFLGGMTTAVDTSPDLLREIDEEVKRIITEQYEKAKAIVEEYKEPLKAVVKKLLEKETITCEEFVEVFKLYGIELKDKCKKEELFDKDRKSEENKELKSEEVKEEVV | – | – | – | 6 | ~12

Reference: paper PMC7949044, “The cytoplasmic domain of the AAA+ protease FtsH is tilted with respect to the membrane to facilitate substrate entry” (The Journal of Biological Chemistry, 2020)
